Source: the RNAGym collection of RNA variant scans (doi:10.1093/molbev/msab373)

B1: Azoarcus group I ribozyme (parent)
chain: GUGCCUUGCGCCGGGAAACCACGCAAGGGAUGGUGUCAAAUUCGGCGAAACCUAAGCGCCCGCCCGGGCGUAUGGCAACGCCGAGCCAAGCUUCGGCGCCUGCGCCGAUGAAGGUGUAGAGACUAGACGGCACCCACCUAAGGCAAACGCUAUGGUGAAGGCAUAGUCCAGGGAGUGGCGAAAGUCACACAAACCGG

Variants of: B1
Test: reverse-splicing fitness (ratio to wild type); higher = more active; in vitro selection; Mg2+ level not given
In short: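 An in vitro group I ribozyme library with randomized positions was T7-transcribed and gel-purified. In triplicate, 10 pmol RNA in EPPS pH 7.5 was reacted with 50 pmoles of a 30-nt RNA substrate for 1 h at 37 °C across several added MgCl2 levels (1–48 mM), then stopped with EDTA. Products were reverse transcribed from a substrate-complementary primer, PCR-amplified and sequenced (HiSeq 4000). Fitness is a variant's read proportion after selection over that before, normalised to wild type.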

Variant	reverse-splicing fitness
C82G A120U A145U C150G C169A U176G	0.00205
C82G A120U A145U C150G C169A U176C	0.00187
C82G A120U A145U C150G C169A U176A	0.0026
C82G A120U A145C C150U C169A U176A	0.00222
C82G A120U A145C C150U C169A U176C	0.00192
C82G A120U A145C C150U C169A U176G	0.00172
C82G A120G A145U C150U C169U U176C	0.0181
C82G A120G A145U C150U C169U U176G	0.00413
C82G A120G A145U C150U C169U U176A	0.0201
C82G A120U A145G C169G U176C	0.00438
C82G A120U A145G C169G U176G	0.00145
C82G A120U A145G C169G U176A	0.00368
C82G A120U A145C C150U C169A	0.00185
C82G A120U A145C C150U C169U	0.00351
C82G A120U A145C C150U C169G	0.003
C82G A120U A145G C150U C169A U176A	0.00578
C82G A120U A145G C150U C169A U176G	0.00223
C82G A120U A145G C150U C169A U176C	0.0027
C82G A120G A145U C150A C169G U176G	0.00401
C82G A120G A145U C150A C169G U176A	0.0132
C82G A120G A145U C150A C169G U176C	0.0157

Variant	reverse-splicing fitness
C82G A120G C150A C169U U176C	0.02
C82G A120G C150A C169U U176G	0.00754
C82G A120G C150A C169U U176A	0.0248
C82G A120U A145U C150G C169U U176A	0.003
C82G A120U A145U C150G C169U U176G	0.00234
C82G A120U A145U C150G C169U U176C	0.00223
C82G A120U A145C U176G	0.0211
C82G A120U A145C U176C	0.0798
C82G A120U A145C U176A	0.0712
C82G A120G A145U C150G U176A	0.00666
C82G A120G A145U C150G U176G	0.00404
C82G A120G A145U C150G U176C	0.0103
C82G A120U A145U C150A C169G U176A	0.00221
C82G A120U A145U C150A C169G U176G	0.00134
C82G A120U A145U C150A C169G U176C	0.00192
C82G A120U A145G C150G U176G	0.0041
C82G A120U A145G C150G U176C	0.0152
C82G A120U A145G C150G U176A	0.00899
C82G A120U A145C C169U	0.00694
C82G A120U A145C C169G	0.00562
C82G A120U A145C C169A	0.00201

Variant	reverse-splicing fitness
C82G A120G C169A	0.0302
C82G A120G C169U	0.0237
C82G A120G C169G	0.0529
C82G A120U A145U C150U C169A U176A	0.00183
C82G A120U A145U C150U C169A U176C	0.00197
C82G A120U A145U C150U C169A U176G	0.00157
C82G A120G C150G U176C	0.0105
C82G A120G C150G U176G	0.00387
C82G A120G C150G U176A	0.00652
C82G A120G C169U U176A	0.0236
C82G A120G C169U U176C	0.024
C82G A120G C169U U176G	0.00492
C82G A120U A145G C150G C169U U176G	0.00451
C82G A120U A145G C150G C169U U176C	0.00701
C82G A120U A145G C150G C169U U176A	0.00829
C82G A120G C150U C169G U176A	0.0177
C82G A120G C150U C169G U176G	0.00485
C82G A120G C150U C169G U176C	0.0246
C82G A120U A145U C150G C169A	0.00271
C82G A120U A145U C150G C169G	0.00287
C82G A120U A145U C150G C169U	0.00283

Variant	reverse-splicing fitness
C82G A120G A145U C150G C169U U176C	0.0129
C82G A120G A145U C150G C169U U176A	0.0125
C82G A120G A145U C150G C169U U176G	0.00487
C82G A120U A145G C150U C169U U176G	0.00216
C82G A120U A145G C150U C169U U176A	0.00444
C82G A120U A145G C150U C169U U176C	0.00469
C82G A120G C169G U176A	0.0234
C82G A120G C169G U176G	0.00375
C82G A120G C169G U176C	0.0324
C82G A120G U176C	0.0208
C82G A120G U176A	0.0149
C82G A120G U176G	0.00803
C82G A120G A145U C150A U176A	0.0105
C82G A120G A145U C150A U176C	0.0139
C82G A120G A145U C150A U176G	0.00553
C82G A120U A145U C169A U176G	0.0013
C82G A120U A145U C169A U176C	0.00205
C82G A120U A145U C169A U176A	0.00245
C82G A120U A145C C150G C169A U176C	0.00176
C82G A120U A145C C150G C169A U176A	0.00219
C82G A120U A145C C150G C169A U176G	0.00165
